Test results reported in patent publication US12187785B2, “Recombinant protein and fragments thereof, method for producing said recombinant protein, synthetic gene and use of sculptin or recombinant protein for preparing a medicament or pharmaceutical composition for the prophylaxis and/or treatment of thromboembolic diseases or as a direct and specific …” (priority 2017, dated 2025).

Assays:
plasmin = molecular target: T1, plasmin (Homo sapiens, UniProt P00747); assay: Serine protease inhibition test, plasmin (chromogenic substrate); format: biochemical; settings: recombinant protein 1, 100, 200 nM; protease 100 pM; 6 h at 37° C.
T1 construct: Serine protease (100 pM; thrombin, plasmin, trypsin or factor Xa) was incubated with recombinant protein
Method: (A) Inhibition of serine proteases through recombinant protein. Serine protease (100 pM; thrombin, plasmin, trypsin or factor Xa) was incubated with recombinant protein (1, 100 and 200 nM) in phosphate buffer 50 mM containing NaCl 150 mM and 0.1% of PEG 6000, pH 7.4 for 6 h at 37° C. Following addition of chromogenic substrate corresponding to reaction mixture, hydrolysis thereof was monitored at 405 nm. For factor Xa activity, buffer contained phosphatidylserine and phosphatidylcholine 50 μM. […] (B) Typical curves for hydrolysis of chromogenic substrate S-2238 (15 μM) by thrombin 0.1 nM in absence (trace a) or presence of recombinant protein (trace b, 15 pM; trace c, 30 pM; trace d, 60 pM and trace e, 100 pM) in phosphate buffer 50 mM containing NaCl 150 mM and 0.1% of PEG 6000, pH 7.4 at 37° C. (C) Residual activity of thrombin in presence of increasing concentration of recombinant protein. (D) Dose-response curves for thrombin inhibition by recombinant protein. Percentage of thrombin inhibition was plotted versus the concentration record of recombinant protein. Experimental condition of (C) and (D) is the same as in (B).
The first performed experiment was the test of serine proteases inhibition through recombinant protein. […] Hydrolysis of a chromogenic substrate through serine proteases in the presence and absence of recombinant protein was monitored in a spectrophotometer way. […]

isolated human plasma [1] = assay: Activated partial thromboplastin time (aPTT) in isolated human plasma; format: biochemical; settings: plasma of healthy human volunteers, incubation 3 min. at 37° C.
Method: (§1) Plasma was obtained from blood of healthy human volunteer and incubated with different concentrations of recombinant protein. APTT, PT and TT were determined like experimental procedure. (A) Activated partial thromboplastin time (B) prothrombin time and (C) thrombin time. Ctrl is related to plasma and Sal is related to plasma plus saline.
(§2) Finally, PT, aPTT and TT were assessed in isolated plasma of healthy human volunteers following incubation with recombinant protein for 3 min. at 37° C. […] Maximum test reading for aPTT was achieved following 12 nM, while for PT that was achieved following 6 nM of recombinant protein (FIGS. 11A and 11B).

isolated human plasma [2] = assay: Thrombin time (TT) in isolated human plasma; format: biochemical; settings: plasma of healthy human volunteers, incubation 3 min. at 37° C.
Method: as §1, §2

[3] = Half-life in plasma ex vivo and in phosphate buffer containing thrombin; format: in vitro ADME; settings: plasma ex vivo and phosphate buffer 50 mM with 1 μM thrombin, recombinant protein 10 μM, pH 7.4, 37° C.
thrombin = thrombin (Homo sapiens, UniProt P00734); assay: Degradation of recombinant protein by thrombin (SDS-PAGE and residual thrombin inhibition); format: in vitro ADME; set-up: Brown and cyan colors represent heavy and light chain of thrombin respectively
Method: Recombinant protein (10 μM) was incubated with or without serine protease 1 μM (thrombin, plasmin, trypsin or factor Xa) in phosphate buffer 50 mM containing NaCl 150 mM and 0.1% of PEG 6000, pH 7.4 for 4, 6, 7 or 18 h at 37° C. Reaction mixtures (20 μl) were split by SDS-PAGE. (A) hydrolysis SDS-PAGE (15%) of recombinant protein by serine proteases following 6 h of incubation. (B) Percentage of thrombin inhibition by recombinant protein following 6 h of incubation with serine protease (see experimental procedures). (C) hydrolysis SDS-PAGE (15%) of recombinant protein by serine proteases following 18 h of incubation. (D) Percentage of thrombin inhibition by recombinant protein following 18 h of incubation with serine protease (see experimental procedures). Numbering of (B) and (D) corresponds to numbering of (A) and (C), respectively, and recombinant protein control is represented by CTRL. Recombinant protein (strip 1); thrombin (strip 2) and thrombin with recombinant protein (strip 3); plasmin (strip 4) and plasmin with recombinant protein (strip 5); trypsin (strip 6) and trypsin with recombinant protein (strip 7); factor Xa (strip 8) and factor Xa with recombinant protein (strip 9) and protein marker (strip 10; in A). (E) Identification of cleavage sites of thrombin in recombinant protein following 7 h of incubation. (F) Identification of cleavage sites of factor Xa in recombinant protein following 4 h of incubation. Cleavage sites of thrombin and factor Xa in recombinant protein sequence are shown in FIGS. S1 and S2, respectively. Experimental procedure for (C), (D), (E) and (F) was the same as for (A) and (B), except the incubation time and the type of serine protease used. FIG. 5 discloses “GKPQG” as SEQ ID NO: 18, “MPKGG” as SEQ ID NO: 19, and “SDAVH” as SEQ ID NO: 20.
Afterwards, it was determined whether serine proteases, like thrombin, plasmin, factor Xa and trypsin, hydrolyze recombinant protein. […] Upon addition of chromogenic substrate S-2238, the hydrolysis thereof by thrombin was monitored in spectrophotometer way. […]

T1 sequence (P00747 581-810 limits assumed, species assumed): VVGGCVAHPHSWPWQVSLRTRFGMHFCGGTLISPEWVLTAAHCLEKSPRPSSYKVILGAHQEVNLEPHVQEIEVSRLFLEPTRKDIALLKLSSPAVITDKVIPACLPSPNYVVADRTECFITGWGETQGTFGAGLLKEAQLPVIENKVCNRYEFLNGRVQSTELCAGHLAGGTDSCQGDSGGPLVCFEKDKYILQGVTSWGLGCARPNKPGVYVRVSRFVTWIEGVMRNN
T1 sequence (P00747 97-580 limits assumed, species assumed): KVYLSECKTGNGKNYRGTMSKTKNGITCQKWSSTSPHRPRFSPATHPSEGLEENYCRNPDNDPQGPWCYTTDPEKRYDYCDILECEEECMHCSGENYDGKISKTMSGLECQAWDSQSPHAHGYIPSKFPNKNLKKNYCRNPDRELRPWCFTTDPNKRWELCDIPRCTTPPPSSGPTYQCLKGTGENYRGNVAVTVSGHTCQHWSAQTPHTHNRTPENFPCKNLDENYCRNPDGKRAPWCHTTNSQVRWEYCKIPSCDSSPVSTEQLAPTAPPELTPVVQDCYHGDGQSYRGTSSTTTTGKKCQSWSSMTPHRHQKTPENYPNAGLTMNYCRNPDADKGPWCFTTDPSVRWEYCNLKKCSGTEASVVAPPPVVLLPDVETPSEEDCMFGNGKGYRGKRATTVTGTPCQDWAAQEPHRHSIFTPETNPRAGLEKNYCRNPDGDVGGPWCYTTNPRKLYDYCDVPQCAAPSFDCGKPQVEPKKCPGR

B1: GKPQGHPHDALEARSDAVHTAVPKMPKGGHGGFEPIPIDYDERALEARSDAVHTAVPKMPKGGLGGFEPIPIDYDERALEARSDAVHTAVPKMPKGGHGGFEPIPIDYDERALEARSDAVHTAVPKMPKGGHGGFEPIPIDYDERALHALEHHHHHH (protein)
chain: GKPQGHPHDALEARSDAVHTAVPKMPKGGHGGFEPIPIDYDERALEARSDAVHTAVPKMPKGGLGGFEPIPIDYDERALEARSDAVHTAVPKMPKGGHGGFEPIPIDYDERALEARSDAVHTAVPKMPKGGHGGFEPIPIDYDERALHALEHHHHHH
modifications: Sculptin recombinat protein
notes: recombinant His-tagged protein modified from tick sculptin, expressed in E. coli
For B1, the inhibition of plasmin (plasmin) was “did not inhibit”, the aPTT (isolated human plasma [1]) was “prolonged by recombinant protein in concentration-dependent way” and the “concentration at which maximum test reading for aPTT was achieved” value (isolated human plasma [1]) was 12 nM. For the same molecule, the TT (isolated human plasma [2]) was “prolonged by recombinant protein in peak-molar range”, the Half-life [3] was 8 h and the “SDS-PAGE strip intensity of 20-kDa (non-digested recombinant protein)” value (thrombin; 10 μM protein with 1 μM thrombin, 6 h at 37° C.) was “decreased”. For the same molecule, the “SDS-PAGE strip of 20-kDa (recombinant protein monomer)” value (thrombin; 10 μM protein with 1 μM thrombin, 18 h at 37° C.) was “completely disappeared” and the “thrombin inhibition after incubation” value (thrombin; after 18 h incubation with thrombin, diluted to 100 pM) was “did not inhibit thrombin”.
